# Test results reported in PMC1635332.
# B1: sp1/sp1c+6 (15/21mer primer/template) (dsDNA)
# DNA 1: GATCACAGTGAGTAC
# DNA 2: TCTATTGTACTCACTGTGATC
# Assays:
# GA-1 DNA polymerase = target: T1, GA-1 DNA polymerase (Bacillus phage GA-1, UniProt Q96206 1-578); test: EMSA
# T1 sequence: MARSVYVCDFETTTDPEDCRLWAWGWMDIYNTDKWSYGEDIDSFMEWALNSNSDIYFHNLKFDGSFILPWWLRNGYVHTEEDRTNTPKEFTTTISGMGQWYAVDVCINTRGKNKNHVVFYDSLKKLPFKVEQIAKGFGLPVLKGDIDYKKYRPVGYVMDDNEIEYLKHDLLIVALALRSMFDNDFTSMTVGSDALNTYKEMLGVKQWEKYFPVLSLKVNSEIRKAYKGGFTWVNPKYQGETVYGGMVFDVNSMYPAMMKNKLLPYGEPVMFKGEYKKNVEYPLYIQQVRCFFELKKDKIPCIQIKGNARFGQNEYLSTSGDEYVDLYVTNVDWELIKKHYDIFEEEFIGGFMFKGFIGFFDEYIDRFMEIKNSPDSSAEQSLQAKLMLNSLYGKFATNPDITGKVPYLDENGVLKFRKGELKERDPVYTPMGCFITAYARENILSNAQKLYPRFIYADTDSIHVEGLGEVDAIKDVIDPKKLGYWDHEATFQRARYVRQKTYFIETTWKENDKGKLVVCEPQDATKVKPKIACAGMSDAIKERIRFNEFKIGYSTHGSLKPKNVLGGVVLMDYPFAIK
# Nf DNA polymerase = target: T2, Nf DNA polymerase (Bacillus phage Nf, UniProt B7SSM2 1-572); test: EMSA
# T2 sequence: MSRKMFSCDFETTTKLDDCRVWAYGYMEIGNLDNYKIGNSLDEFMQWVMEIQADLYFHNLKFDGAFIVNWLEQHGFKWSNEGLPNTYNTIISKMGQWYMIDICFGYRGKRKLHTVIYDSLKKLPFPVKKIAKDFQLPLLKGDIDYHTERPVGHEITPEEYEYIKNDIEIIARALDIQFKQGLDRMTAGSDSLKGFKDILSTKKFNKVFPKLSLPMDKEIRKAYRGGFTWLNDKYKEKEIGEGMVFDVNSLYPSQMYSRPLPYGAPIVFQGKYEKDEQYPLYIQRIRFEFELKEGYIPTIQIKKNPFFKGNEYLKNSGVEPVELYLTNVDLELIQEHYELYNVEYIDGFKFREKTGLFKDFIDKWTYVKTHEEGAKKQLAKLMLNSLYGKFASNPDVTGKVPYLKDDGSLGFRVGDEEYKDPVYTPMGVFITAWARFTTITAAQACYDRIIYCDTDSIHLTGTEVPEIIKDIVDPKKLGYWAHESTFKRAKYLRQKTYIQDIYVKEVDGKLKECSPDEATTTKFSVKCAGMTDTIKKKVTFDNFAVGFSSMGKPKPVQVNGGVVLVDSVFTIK
binder,measurement,setting,value
B1,binding result,GA-1 DNA polymerase,no binding
same,Kd,Nf DNA polymerase,1.5 nM
